Experimental data as given in article doi:10.1101/2025.09.16.670041 (bioRxiv, 2025).
“And” between values parts separate entries of the source, which are not always exact repeats. Identical values can stand only once. Like-named read-outs stand apart in the source and are kept apart here. Each block holds one molecule with its values, some of them ahead of it. No end group written: not given here. fluorescein = fluorescein (N-terminal fluorescent label on the UBE3A peptide)

Assays:
[1] = molecular target: biotinylated MBP-fused HERC2 RLD2 domain (residues 2941-3342) (human) (UniProt O95714); assay: native holdup assay
[2] = molecular target: T1, HERC2 RLD2 domain (residues 2941-3342), untagged (human, UniProt O95714 2941-3342); assay: fluorescence polarisation
T1 sequence (looked up): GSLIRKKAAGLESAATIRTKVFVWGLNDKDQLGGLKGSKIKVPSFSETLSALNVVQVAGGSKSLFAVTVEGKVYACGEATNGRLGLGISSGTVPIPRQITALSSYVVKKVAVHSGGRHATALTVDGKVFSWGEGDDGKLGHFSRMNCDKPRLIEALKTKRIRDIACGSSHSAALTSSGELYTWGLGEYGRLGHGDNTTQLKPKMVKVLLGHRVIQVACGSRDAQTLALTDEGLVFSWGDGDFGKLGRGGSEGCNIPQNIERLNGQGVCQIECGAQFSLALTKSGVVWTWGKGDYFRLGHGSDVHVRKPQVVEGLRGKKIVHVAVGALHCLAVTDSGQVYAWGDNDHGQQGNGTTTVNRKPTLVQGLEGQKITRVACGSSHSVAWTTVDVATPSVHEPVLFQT

[3] = molecular target: T2, endogenous full-length UBE3A from mouse brain (mouse (endogenous in mouse brain), UniProt O08759 1-870); assay: native holdup assay
T2 sequence (looked up): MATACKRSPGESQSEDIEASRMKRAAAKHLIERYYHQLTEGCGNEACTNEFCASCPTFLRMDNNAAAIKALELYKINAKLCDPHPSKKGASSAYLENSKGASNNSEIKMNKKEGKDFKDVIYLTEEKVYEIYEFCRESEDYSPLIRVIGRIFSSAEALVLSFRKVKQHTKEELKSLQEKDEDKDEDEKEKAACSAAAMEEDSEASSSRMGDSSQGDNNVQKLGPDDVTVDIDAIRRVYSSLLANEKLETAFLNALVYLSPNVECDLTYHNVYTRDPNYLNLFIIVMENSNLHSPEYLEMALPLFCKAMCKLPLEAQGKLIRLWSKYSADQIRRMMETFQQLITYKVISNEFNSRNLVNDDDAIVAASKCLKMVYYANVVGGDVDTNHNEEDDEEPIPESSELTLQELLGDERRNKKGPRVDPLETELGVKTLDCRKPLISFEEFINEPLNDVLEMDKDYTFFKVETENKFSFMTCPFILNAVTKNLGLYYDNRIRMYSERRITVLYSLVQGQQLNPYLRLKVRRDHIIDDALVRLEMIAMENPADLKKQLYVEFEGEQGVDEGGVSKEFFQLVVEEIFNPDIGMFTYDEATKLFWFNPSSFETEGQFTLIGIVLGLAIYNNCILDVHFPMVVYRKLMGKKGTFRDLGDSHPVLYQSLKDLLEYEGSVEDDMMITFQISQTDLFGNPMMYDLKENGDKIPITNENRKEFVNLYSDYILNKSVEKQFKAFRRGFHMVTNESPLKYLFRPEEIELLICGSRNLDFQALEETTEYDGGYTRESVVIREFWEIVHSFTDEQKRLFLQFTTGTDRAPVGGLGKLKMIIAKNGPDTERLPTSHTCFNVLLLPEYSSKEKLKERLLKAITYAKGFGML

[4] = molecular target: endogenous full-length PCM1 (human (endogenous in SH-SY5Y), UniProt Q15154 1-2024); assay: native holdup assay
[5] = molecular target: endogenous full-length UBE3A from SH-SY5Y cells (human (endogenous in SH-SY5Y), UniProt Q05086 1-875); assay: native holdup assay
[6] = molecular target: T3, endogenous full-length ARID4A (human (endogenous in SH-SY5Y), UniProt P29374 1-1257); assay: native holdup assay
T3 sequence (looked up): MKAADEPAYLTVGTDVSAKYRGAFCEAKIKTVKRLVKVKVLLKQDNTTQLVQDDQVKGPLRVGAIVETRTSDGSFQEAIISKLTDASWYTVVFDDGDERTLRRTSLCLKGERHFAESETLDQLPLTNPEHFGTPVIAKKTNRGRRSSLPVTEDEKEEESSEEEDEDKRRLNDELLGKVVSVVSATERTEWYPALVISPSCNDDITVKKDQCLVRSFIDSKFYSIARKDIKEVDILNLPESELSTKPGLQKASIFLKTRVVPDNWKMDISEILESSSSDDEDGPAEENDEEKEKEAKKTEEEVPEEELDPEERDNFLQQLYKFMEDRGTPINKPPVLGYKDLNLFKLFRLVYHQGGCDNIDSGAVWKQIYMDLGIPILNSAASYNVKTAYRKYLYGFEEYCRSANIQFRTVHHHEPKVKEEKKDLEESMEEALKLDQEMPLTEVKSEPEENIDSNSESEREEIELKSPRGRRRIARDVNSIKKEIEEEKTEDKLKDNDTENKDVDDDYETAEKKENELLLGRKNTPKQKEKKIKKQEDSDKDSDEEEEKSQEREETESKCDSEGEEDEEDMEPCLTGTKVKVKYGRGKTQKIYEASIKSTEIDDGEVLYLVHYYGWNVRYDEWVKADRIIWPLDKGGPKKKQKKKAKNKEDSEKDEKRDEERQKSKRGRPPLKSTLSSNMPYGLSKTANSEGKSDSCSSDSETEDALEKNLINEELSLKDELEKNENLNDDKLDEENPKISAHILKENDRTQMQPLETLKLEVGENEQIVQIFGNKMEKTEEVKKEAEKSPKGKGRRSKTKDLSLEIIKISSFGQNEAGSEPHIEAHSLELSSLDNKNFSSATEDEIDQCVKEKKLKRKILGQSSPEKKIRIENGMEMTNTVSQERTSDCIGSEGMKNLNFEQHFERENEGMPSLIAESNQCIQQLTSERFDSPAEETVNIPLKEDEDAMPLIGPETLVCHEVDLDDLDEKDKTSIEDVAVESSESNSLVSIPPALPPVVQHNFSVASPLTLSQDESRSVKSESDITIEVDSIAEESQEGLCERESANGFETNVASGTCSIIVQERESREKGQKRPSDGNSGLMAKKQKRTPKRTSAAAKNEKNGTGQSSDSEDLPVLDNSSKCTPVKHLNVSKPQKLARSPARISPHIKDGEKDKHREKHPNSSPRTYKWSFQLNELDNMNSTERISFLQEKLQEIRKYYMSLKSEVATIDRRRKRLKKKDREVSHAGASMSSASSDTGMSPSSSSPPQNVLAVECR

[7] = molecular target: endogenous full-length DOCK10 (human (endogenous in SH-SY5Y), UniProt Q96BY6 1-2186); assay: native holdup assay
[8] = molecular target: T4, endogenous full-length HERC2 (human (endogenous in SH-SY5Y), UniProt O95714 1-4834); assay: native holdup assay
[9] = molecular target: T4, endogenous full-length HERC2; assay: native holdup assay; remark: listed apart in the source

T4 sequence (O95714 whole entry): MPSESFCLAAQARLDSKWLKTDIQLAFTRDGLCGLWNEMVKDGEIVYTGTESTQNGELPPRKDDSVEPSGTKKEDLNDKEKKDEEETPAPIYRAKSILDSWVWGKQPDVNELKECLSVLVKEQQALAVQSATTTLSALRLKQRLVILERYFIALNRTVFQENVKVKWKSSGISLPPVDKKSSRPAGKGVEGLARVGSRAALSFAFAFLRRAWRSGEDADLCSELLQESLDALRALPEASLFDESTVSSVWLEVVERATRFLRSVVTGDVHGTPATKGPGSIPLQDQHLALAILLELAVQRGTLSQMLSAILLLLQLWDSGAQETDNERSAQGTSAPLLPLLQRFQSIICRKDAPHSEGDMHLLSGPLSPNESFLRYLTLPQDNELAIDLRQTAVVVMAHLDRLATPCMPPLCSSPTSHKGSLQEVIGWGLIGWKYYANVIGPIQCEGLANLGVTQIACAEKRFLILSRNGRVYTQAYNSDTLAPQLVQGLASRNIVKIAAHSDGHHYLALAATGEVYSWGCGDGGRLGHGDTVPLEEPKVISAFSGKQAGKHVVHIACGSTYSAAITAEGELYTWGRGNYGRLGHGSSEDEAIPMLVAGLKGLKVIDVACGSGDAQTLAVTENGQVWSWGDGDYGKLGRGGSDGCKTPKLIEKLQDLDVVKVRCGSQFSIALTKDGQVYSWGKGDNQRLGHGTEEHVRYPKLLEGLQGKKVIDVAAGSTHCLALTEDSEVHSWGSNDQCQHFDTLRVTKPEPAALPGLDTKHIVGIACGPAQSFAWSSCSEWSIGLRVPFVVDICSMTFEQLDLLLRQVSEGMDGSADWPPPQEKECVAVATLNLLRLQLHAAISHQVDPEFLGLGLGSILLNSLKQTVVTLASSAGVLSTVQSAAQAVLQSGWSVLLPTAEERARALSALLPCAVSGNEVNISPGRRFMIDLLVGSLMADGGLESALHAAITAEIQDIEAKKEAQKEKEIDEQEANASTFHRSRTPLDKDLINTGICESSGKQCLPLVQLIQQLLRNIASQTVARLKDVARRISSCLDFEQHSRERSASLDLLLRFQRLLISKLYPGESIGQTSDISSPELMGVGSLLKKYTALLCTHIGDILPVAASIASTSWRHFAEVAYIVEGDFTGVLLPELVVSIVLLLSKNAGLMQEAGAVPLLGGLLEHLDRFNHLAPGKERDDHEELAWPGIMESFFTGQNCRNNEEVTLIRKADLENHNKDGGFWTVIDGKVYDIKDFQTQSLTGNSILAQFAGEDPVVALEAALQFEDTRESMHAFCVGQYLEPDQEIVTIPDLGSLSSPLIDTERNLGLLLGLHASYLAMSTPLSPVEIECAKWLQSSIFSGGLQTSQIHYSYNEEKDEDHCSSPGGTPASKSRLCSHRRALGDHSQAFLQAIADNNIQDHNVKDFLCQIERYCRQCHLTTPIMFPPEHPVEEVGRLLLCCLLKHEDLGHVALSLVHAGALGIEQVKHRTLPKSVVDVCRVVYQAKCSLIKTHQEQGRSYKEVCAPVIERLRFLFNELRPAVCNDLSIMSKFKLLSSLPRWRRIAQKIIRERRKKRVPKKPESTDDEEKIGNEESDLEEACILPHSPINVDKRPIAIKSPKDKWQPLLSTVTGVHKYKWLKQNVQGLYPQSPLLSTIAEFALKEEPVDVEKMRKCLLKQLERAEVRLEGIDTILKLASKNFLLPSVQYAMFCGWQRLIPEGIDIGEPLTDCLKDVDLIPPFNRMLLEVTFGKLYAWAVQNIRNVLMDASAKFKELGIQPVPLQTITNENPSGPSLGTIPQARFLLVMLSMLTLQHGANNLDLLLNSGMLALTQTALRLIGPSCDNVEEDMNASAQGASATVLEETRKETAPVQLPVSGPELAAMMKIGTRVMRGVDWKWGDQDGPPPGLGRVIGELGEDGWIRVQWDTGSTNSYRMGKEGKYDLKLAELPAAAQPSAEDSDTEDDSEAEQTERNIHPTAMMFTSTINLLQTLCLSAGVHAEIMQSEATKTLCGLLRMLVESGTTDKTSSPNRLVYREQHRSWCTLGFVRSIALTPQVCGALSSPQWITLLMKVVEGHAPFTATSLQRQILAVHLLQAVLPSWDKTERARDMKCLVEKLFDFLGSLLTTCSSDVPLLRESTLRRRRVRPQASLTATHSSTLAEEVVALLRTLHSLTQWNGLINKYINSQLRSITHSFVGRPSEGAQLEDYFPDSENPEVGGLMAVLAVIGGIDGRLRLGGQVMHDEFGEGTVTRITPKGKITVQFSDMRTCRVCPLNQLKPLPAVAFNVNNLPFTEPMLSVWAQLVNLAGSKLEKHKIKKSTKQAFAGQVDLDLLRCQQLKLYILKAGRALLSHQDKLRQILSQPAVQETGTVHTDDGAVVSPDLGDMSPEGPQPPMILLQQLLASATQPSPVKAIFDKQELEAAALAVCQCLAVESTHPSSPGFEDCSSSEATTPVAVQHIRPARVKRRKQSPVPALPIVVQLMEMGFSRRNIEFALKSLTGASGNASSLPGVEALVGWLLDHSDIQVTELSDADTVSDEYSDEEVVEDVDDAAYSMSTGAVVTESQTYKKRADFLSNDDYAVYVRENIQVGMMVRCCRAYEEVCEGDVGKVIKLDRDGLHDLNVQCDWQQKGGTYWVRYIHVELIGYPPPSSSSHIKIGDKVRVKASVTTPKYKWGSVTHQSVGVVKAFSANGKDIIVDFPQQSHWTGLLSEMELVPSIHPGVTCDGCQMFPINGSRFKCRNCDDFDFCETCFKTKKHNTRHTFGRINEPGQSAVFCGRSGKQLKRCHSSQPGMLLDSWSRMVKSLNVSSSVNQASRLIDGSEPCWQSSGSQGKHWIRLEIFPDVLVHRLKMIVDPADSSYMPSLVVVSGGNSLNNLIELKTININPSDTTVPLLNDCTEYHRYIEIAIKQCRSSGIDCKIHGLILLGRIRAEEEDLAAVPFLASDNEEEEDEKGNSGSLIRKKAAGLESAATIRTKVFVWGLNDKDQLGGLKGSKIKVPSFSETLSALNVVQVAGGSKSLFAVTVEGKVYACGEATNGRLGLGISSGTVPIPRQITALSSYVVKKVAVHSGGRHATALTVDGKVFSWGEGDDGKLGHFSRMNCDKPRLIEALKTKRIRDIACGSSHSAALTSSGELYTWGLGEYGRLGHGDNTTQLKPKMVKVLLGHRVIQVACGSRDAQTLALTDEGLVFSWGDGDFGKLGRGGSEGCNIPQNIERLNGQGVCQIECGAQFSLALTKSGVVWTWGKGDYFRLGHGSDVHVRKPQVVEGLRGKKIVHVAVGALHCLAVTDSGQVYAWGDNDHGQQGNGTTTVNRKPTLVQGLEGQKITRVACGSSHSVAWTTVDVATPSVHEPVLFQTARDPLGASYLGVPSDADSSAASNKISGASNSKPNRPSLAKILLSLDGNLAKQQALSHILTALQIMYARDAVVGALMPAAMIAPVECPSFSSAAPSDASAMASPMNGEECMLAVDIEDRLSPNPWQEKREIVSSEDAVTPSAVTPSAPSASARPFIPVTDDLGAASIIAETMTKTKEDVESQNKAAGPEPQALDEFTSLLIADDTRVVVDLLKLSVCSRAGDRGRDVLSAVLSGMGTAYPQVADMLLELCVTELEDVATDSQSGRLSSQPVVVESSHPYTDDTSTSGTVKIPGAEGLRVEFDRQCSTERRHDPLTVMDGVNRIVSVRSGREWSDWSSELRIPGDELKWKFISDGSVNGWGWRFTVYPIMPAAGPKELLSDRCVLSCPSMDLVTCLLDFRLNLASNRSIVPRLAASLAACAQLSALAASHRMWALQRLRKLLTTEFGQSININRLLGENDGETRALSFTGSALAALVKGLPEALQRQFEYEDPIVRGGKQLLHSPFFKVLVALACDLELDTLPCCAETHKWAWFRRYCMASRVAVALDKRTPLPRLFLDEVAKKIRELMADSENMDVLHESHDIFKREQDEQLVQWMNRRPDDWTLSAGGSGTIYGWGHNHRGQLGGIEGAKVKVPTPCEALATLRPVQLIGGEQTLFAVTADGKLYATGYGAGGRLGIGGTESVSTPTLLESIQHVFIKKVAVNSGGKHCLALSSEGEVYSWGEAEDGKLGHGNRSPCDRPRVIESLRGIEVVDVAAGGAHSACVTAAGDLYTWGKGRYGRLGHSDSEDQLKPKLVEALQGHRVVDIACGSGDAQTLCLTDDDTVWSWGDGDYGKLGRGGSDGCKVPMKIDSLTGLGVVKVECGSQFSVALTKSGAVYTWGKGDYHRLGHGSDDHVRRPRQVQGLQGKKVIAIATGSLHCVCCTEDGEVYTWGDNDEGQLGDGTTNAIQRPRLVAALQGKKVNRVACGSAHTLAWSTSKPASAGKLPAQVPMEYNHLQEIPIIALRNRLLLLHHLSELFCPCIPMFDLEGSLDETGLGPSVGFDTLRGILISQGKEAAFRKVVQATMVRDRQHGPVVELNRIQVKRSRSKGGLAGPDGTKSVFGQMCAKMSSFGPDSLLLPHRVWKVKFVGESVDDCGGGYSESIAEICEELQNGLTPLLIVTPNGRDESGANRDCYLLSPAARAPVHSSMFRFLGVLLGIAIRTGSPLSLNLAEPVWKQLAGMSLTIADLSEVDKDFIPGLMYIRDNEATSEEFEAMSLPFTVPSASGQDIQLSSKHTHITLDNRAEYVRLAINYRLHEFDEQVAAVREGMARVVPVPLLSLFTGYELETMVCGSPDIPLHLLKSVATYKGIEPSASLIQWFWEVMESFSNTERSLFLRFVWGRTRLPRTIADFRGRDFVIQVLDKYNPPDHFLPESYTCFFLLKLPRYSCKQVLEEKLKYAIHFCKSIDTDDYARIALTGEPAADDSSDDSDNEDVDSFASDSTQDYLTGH

B2: biotinylated MBP-fused HERC2 RLD2 domain (residues 2941-3342) (domain or fragment, human, UniProt O95714 2941-3342, looked up)
chain: GSLIRKKAAGLESAATIRTKVFVWGLNDKDQLGGLKGSKIKVPSFSETLSALNVVQVAGGSKSLFAVTVEGKVYACGEATNGRLGLGISSGTVPIPRQITALSSYVVKKVAVHSGGRHATALTVDGKVFSWGEGDDGKLGHFSRMNCDKPRLIEALKTKRIRDIACGSSHSAALTSSGELYTWGLGEYGRLGHGDNTTQLKPKMVKVLLGHRVIQVACGSRDAQTLALTDEGLVFSWGDGDFGKLGRGGSEGCNIPQNIERLNGQGVCQIECGAQFSLALTKSGVVWTWGKGDYFRLGHGSDVHVRKPQVVEGLRGKKIVHVAVGALHCLAVTDSGQVYAWGDNDHGQQGNGTTTVNRKPTLVQGLEGQKITRVACGSSHSVAWTTVDVATPSVHEPVLFQT
modifications: biotin on the AviTag (in vivo biotinylation)
Kd [3]: ~100 nM
Kd [4]: 260 ± 40 nM
Kd [5]: < 100 nM and ~100 nM
Kd [6]: < 100 nM
Kd [7]: 2600 ± 500 nM

B3: biotinylated UBE3A peptide containing amino acids 150-174 (peptide)
peptide: HTKEELKSLQAKDEDKDEDEKEKAA
modifications: also: biotin, position not given here
Kd [8]: 340 ± 90 nM

B4: UBE3A 18-aa linked to fluorescein (peptide)
peptide: fluorescein-SLQAKDEDKDEDEKEKAA
binding result [2]: binds

B6: UBE3A peptide residues 160-174 (peptide, UniProt Q05086-2 160-174, looked up)
peptide: AKDEDKDEDEKEKAA
Kd [2]: 6850 ± 290 nM

B7: UBE3A peptide residues 150-200 (peptide, UniProt Q05086-2 150-200, looked up)
peptide: HTKEELKSLQAKDEDKDEDEKEKAACSAAAMEEDSEASSSRIGDSSQGDNN
binding result [2]: binds

Now from value to molecule:

Kd [1]: > 10000 nM
Molecule: endogenous full-length MYT1 (from UniProt Q01538 1-1121) (natural protein)

Kd [1]: 100 nM
Molecule: endogenous full-length UBE3A from zebrafish embryos (enzyme)

Kd [2]: < 100 nM
B1: non-labeled UBE3A peptide residues 150-174 (peptide)
peptide: HTKEELKSLQAKDEDKDEDEKEKAA

Kd [9]: 560 ± 150 nM
B5: biotinylated full-length MBP-fused UBE3A protein (enzyme, human, UniProt Q05086-2 1-852, looked up)
chain: MKRAAAKHLIERYYHQLTEGCGNEACTNEFCASCPTFLRMDNNAAAIKALELYKINAKLCDPHPSKKGASSAYLENSKGAPNNSCSEIKMNKKGARIDFKDVTYLTEEKVYEILELCREREDYSPLIRVIGRVFSSAEALVQSFRKVKQHTKEELKSLQAKDEDKDEDEKEKAACSAAAMEEDSEASSSRIGDSSQGDNNLQKLGPDDVSVDIDAIRRVYTRLLSNEKIETAFLNALVYLSPNVECDLTYHNVYSRDPNYLNLFIIVMENRNLHSPEYLEMALPLFCKAMSKLPLAAQGKLIRLWSKYNADQIRRMMETFQQLITYKVISNEFNSRNLVNDDDAIVAASKCLKMVYYANVVGGEVDTNHNEEDDEEPIPESSELTLQELLGEERRNKKGPRVDPLETELGVKTLDCRKPLIPFEEFINEPLNEVLEMDKDYTFFKVETENKFSFMTCPFILNAVTKNLGLYYDNRIRMYSERRITVLYSLVQGQQLNPYLRLKVRRDHIIDDALVRLEMIAMENPADLKKQLYVEFEGEQGVDEGGVSKEFFQLVVEEIFNPDIGMFTYDESTKLFWFNPSSFETEGQFTLIGIVLGLAIYNNCILDVHFPMVVYRKLMGKKGTFRDLGDSHPVLYQSLKDLLEYEGNVEDDMMITFQISQTDLFGNPMMYDLKENGDKIPITNENRKEFVNLYSDYILNKSVEKQFKAFRRGFHMVTNESPLKYLFRPEEIELLICGSRNLDFQALEETTEYDGGYTRDSVLIREFWEIVHSFTDEQKRLFLQFTTGTDRAPVGGLGKLKMIIAKNGPDTERLPTSHTCFNVLLLPEYSSKEKLKERLLKAITYAKGFGML
modifications: biotin on the AviTag (in vivo biotinylation)
